Experimental data as given in US7183387 (Genentech, dated 2007).

T1: human FcγRIIA-R131 α subunit extracellular domain-6His-GST fusion (human, UniProt P12318 34-217)
T1 construct: also called FcγRIIA-Arg131; not shown: glutathione S-transferase (GST)
T1 sequence: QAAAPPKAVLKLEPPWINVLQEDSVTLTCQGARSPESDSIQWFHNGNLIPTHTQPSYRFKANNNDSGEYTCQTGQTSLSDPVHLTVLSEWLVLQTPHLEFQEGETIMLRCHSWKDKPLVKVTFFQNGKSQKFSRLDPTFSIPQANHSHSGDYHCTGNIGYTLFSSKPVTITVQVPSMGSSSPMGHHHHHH

T2: human FcγRIIB α subunit extracellular domain-6His-GST fusion (human, UniProt P31994 43-217)
T2 construct: not shown: glutathione S-transferase (GST)
T2 sequence: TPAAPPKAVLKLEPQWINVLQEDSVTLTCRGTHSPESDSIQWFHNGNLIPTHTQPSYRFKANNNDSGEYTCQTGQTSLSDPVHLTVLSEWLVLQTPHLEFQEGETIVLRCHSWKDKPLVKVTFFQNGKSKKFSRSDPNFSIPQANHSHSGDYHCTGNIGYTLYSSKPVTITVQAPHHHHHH


Assays:
Experiment in all cases: ELISA, IgG:IgE hexamers on receptor-GST
[1] = target: T1, human FcγRIIA-R131 α subunit …
[2] = target: T2, human FcγRIIB α subunit extracellular …
[3] = target: T3, human FcγRIIIA-F158 α subunit extracellular domain-6His-GST fusion (human, UniProt P08637 17-208)
T3 construct: also called FcγRIIIA-Phe158; not shown: glutathione S-transferase (GST)
T3 sequence (P08637 other isoform, or with tags, fused parts or gaps, form in doubt): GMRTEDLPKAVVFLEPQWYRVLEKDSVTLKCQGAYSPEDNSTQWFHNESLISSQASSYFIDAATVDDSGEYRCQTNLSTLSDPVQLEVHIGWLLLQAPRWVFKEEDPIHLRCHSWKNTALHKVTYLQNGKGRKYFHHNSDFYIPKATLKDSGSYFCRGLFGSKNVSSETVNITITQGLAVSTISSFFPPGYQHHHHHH

| ratio to native IgG1 [1] | ratio to native IgG1 [2] | ratio to native IgG1 [3] | Binder |
| --- | --- | --- | --- |
| 1.48 | 2.03 | 0.89 | E27 IgG1 variant S267(280)A/E258(271)A/D280(295)A/R255(268)A (antibody, also called IG2 264) heavy: EVQLVESGGGLVQPGGSLRLSCAVSGYSITSGYSWNWIRQAPGKGLEWVASIKYSGETKYNPSVKGRITISRDDSKNTFYLQMNSLRAEDTAVYYCARGSHYFGHWHFAVWGQGTLVTVSSASTKGPSVFPLAPSSKSTSGGTAALGCLVKDYFPEPVTVSWNSGALTSGVHTFPAVLQSSGLYSLSSVVTVPSSSLGTQTYICNVNHKPSNTKVDKKVEPKSCDKTHTCPPCPAPELLGGPSVFLFPPKPKDTLMISATPAVTCVVVDVAHEDPEVKFNWYVAGVEVHNAKTKPREEQYNSTYRVVSVLTVLHQDWLNGKEYKCKVSNKALPAPIEKTISKAKGQPREPQVYTLPPSREEMTKNQVSLTCLVKGFYPSDIAVEWESNGQPENNYKTTPPVLDSDGSFFLYSKLTVDKSRWQQGNVFSCSVMHEALHNHYTQKSLSLSPGK light: DIQLTQSPSSLSASVGDRVTITCRASKPVDGEGDSYLNWYQQKPGKAPKLLIYAASYLESGVPSRFSGSGSGTDFTLTISSLQPEDFATYYCQQSHEDPYTFGQGTKVEIKRTVAAPSVFIFPPSDEQLKSGTASVVCLLNNFYPREAKVQWKVDNALQSGNSQESVTEQDSKDSTYSLSSTLTLSKADYEKHKVYACEVTHQGLSSPVTKSFNRGEC |
| 0.44 | 0.22 | 1.41 | E27 IgG1 variant T256(269)A/S298(317)A (antibody, also called IG2 1059) heavy: not shown light: DIQLTQSPSSLSASVGDRVTITCRASKPVDGEGDSYLNWYQQKPGKAPKLLIYAASYLESGVPSRFSGSGSGTDFTLTISSLQPEDFATYYCQQSHEDPYTFGQGTKVEIKRTVAAPSVFIFPPSDEQLKSGTASVVCLLNNFYPREAKVQWKVDNALQSGNSQESVTEQDSKDSTYSLSSTLTLSKADYEKHKVYACEVTHQGLSSPVTKSFNRGEC |
| 1.41 | 1.56 | 0.96 | E27 IgG1 variant S267(280)A/H268(281)A (antibody, also called IG2 96) heavy: not shown light: DIQLTQSPSSLSASVGDRVTITCRASKPVDGEGDSYLNWYQQKPGKAPKLLIYAASYLESGVPSRFSGSGSGTDFTLTISSLQPEDFATYYCQQSHEDPYTFGQGTKVEIKRTVAAPSVFIFPPSDEQLKSGTASVVCLLNNFYPREAKVQWKVDNALQSGNSQESVTEQDSKDSTYSLSSTLTLSKADYEKHKVYACEVTHQGLSSPVTKSFNRGEC |
| 1.67 | 1.85 | 0.92 | E27 IgG1 variant S267(280)A/E293(310)A (antibody, also called IG2 251) heavy: not shown light: DIQLTQSPSSLSASVGDRVTITCRASKPVDGEGDSYLNWYQQKPGKAPKLLIYAASYLESGVPSRFSGSGSGTDFTLTISSLQPEDFATYYCQQSHEDPYTFGQGTKVEIKRTVAAPSVFIFPPSDEQLKSGTASVVCLLNNFYPREAKVQWKVDNALQSGNSQESVTEQDSKDSTYSLSSTLTLSKADYEKHKVYACEVTHQGLSSPVTKSFNRGEC |
| 0.11 | 0.08 | 0.9 | E27 IgG1 variant T256(269)A/D280(295)A/R292(309)A/S298(317)A/T307(326)A (antibody) heavy: EVQLVESGGGLVQPGGSLRLSCAVSGYSITSGYSWNWIRQAPGKGLEWVASIKYSGETKYNPSVKGRITISRDDSKNTFYLQMNSLRAEDTAVYYCARGSHYFGHWHFAVWGQGTLVTVSSASTKGPSVFPLAPSSKSTSGGTAALGCLVKDYFPEPVTVSWNSGALTSGVHTFPAVLQSSGLYSLSSVVTVPSSSLGTQTYICNVNHKPSNTKVDKKVEPKSCDKTHTCPPCPAPELLGGPSVFLFPPKPKDTLMISRAPEVTCVVVDVSHEDPEVKFNWYVAGVEVHNAKTKPAEEQYNATYRVVSVLAVLHQDWLNGKEYKCKVSNKALPAPIEKTISKAKGQPREPQVYTLPPSREEMTKNQVSLTCLVKGFYPSDIAVEWESNGQPENNYKTTPPVLDSDGSFFLYSKLTVDKSRWQQGNVFSCSVMHEALHNHYTQKSLSLSPGK light: DIQLTQSPSSLSASVGDRVTITCRASKPVDGEGDSYLNWYQQKPGKAPKLLIYAASYLESGVPSRFSGSGSGTDFTLTISSLQPEDFATYYCQQSHEDPYTFGQGTKVEIKRTVAAPSVFIFPPSDEQLKSGTASVVCLLNNFYPREAKVQWKVDNALQSGNSQESVTEQDSKDSTYSLSSTLTLSKADYEKHKVYACEVTHQGLSSPVTKSFNRGEC |
| 0.41 | 0.19 | 1.62 | E27 IgG1 variant S298(317)A/K334(353)A (antibody) heavy: not shown light: DIQLTQSPSSLSASVGDRVTITCRASKPVDGEGDSYLNWYQQKPGKAPKLLIYAASYLESGVPSRFSGSGSGTDFTLTISSLQPEDFATYYCQQSHEDPYTFGQGTKVEIKRTVAAPSVFIFPPSDEQLKSGTASVVCLLNNFYPREAKVQWKVDNALQSGNSQESVTEQDSKDSTYSLSSTLTLSKADYEKHKVYACEVTHQGLSSPVTKSFNRGEC |
| 0.34 | 0.16 | 1.53 | E27 IgG1 variant S298(317)A/E333(352)A (antibody) heavy: not shown light: DIQLTQSPSSLSASVGDRVTITCRASKPVDGEGDSYLNWYQQKPGKAPKLLIYAASYLESGVPSRFSGSGSGTDFTLTISSLQPEDFATYYCQQSHEDPYTFGQGTKVEIKRTVAAPSVFIFPPSDEQLKSGTASVVCLLNNFYPREAKVQWKVDNALQSGNSQESVTEQDSKDSTYSLSSTLTLSKADYEKHKVYACEVTHQGLSSPVTKSFNRGEC |
| 1.6 | 1.72 | 0.88 | E27 IgG1 variant S267(280)A/R255(268)A (antibody, also called IG2 247) heavy: not shown light: DIQLTQSPSSLSASVGDRVTITCRASKPVDGEGDSYLNWYQQKPGKAPKLLIYAASYLESGVPSRFSGSGSGTDFTLTISSLQPEDFATYYCQQSHEDPYTFGQGTKVEIKRTVAAPSVFIFPPSDEQLKSGTASVVCLLNNFYPREAKVQWKVDNALQSGNSQESVTEQDSKDSTYSLSSTLTLSKADYEKHKVYACEVTHQGLSSPVTKSFNRGEC |
| 0.34 | 0.15 | 1.51 | E27 IgG1 variant S298(317)A/E333(352)A/K334(353)A (antibody, also called IG2 110) heavy: EVQLVESGGGLVQPGGSLRLSCAVSGYSITSGYSWNWIRQAPGKGLEWVASIKYSGETKYNPSVKGRITISRDDSKNTFYLQMNSLRAEDTAVYYCARGSHYFGHWHFAVWGQGTLVTVSSASTKGPSVFPLAPSSKSTSGGTAALGCLVKDYFPEPVTVSWNSGALTSGVHTFPAVLQSSGLYSLSSVVTVPSSSLGTQTYICNVNHKPSNTKVDKKVEPKSCDKTHTCPPCPAPELLGGPSVFLFPPKPKDTLMISRTPEVTCVVVDVSHEDPEVKFNWYVDGVEVHNAKTKPREEQYNATYRVVSVLTVLHQDWLNGKEYKCKVSNKALPAPIAATISKAKGQPREPQVYTLPPSREEMTKNQVSLTCLVKGFYPSDIAVEWESNGQPENNYKTTPPVLDSDGSFFLYSKLTVDKSRWQQGNVFSCSVMHEALHNHYTQKSLSLSPGK light: DIQLTQSPSSLSASVGDRVTITCRASKPVDGEGDSYLNWYQQKPGKAPKLLIYAASYLESGVPSRFSGSGSGTDFTLTISSLQPEDFATYYCQQSHEDPYTFGQGTKVEIKRTVAAPSVFIFPPSDEQLKSGTASVVCLLNNFYPREAKVQWKVDNALQSGNSQESVTEQDSKDSTYSLSSTLTLSKADYEKHKVYACEVTHQGLSSPVTKSFNRGEC |
| 0.47 | 0.3 | 1.21 | E27 IgG1 variant T256(269)A/D280(295)A/S298(317)A/T307(326)A (antibody, also called IG2 1051) heavy: EVQLVESGGGLVQPGGSLRLSCAVSGYSITSGYSWNWIRQAPGKGLEWVASIKYSGETKYNPSVKGRITISRDDSKNTFYLQMNSLRAEDTAVYYCARGSHYFGHWHFAVWGQGTLVTVSSASTKGPSVFPLAPSSKSTSGGTAALGCLVKDYFPEPVTVSWNSGALTSGVHTFPAVLQSSGLYSLSSVVTVPSSSLGTQTYICNVNHKPSNTKVDKKVEPKSCDKTHTCPPCPAPELLGGPSVFLFPPKPKDTLMISRAPEVTCVVVDVSHEDPEVKFNWYVAGVEVHNAKTKPREEQYNATYRVVSVLAVLHQDWLNGKEYKCKVSNKALPAPIEKTISKAKGQPREPQVYTLPPSREEMTKNQVSLTCLVKGFYPSDIAVEWESNGQPENNYKTTPPVLDSDGSFFLYSKLTVDKSRWQQGNVFSCSVMHEALHNHYTQKSLSLSPGK light: DIQLTQSPSSLSASVGDRVTITCRASKPVDGEGDSYLNWYQQKPGKAPKLLIYAASYLESGVPSRFSGSGSGTDFTLTISSLQPEDFATYYCQQSHEDPYTFGQGTKVEIKRTVAAPSVFIFPPSDEQLKSGTASVVCLLNNFYPREAKVQWKVDNALQSGNSQESVTEQDSKDSTYSLSSTLTLSKADYEKHKVYACEVTHQGLSSPVTKSFNRGEC |
| 1.51 | 1.82 | 0.95 | E27 IgG1 variant S267(280)A/E272(285)A (antibody, also called IG2 250) heavy: not shown light: DIQLTQSPSSLSASVGDRVTITCRASKPVDGEGDSYLNWYQQKPGKAPKLLIYAASYLESGVPSRFSGSGSGTDFTLTISSLQPEDFATYYCQQSHEDPYTFGQGTKVEIKRTVAAPSVFIFPPSDEQLKSGTASVVCLLNNFYPREAKVQWKVDNALQSGNSQESVTEQDSKDSTYSLSSTLTLSKADYEKHKVYACEVTHQGLSSPVTKSFNRGEC |
